From the Human Domainome abundance scans (Beltran et al. 2025)

B1: Zinc finger MYM-type protein 2, residues 463 to 506; numbered along this chain, Q9UBW7 (parent)
chain: IMNCCEQCGEYLPSKGAGNNVLVIDGQQKRFCCQSCVSEYKQVG

Variants of: B1
Test: abundance fitness (aPCA) (normalised: wild type 0, dead -1); higher = more abundant; growth selection in yeast, the domain comes from the species named
Settings: Homo sapiens

Abundance fitness: each site, then its substitutions
Q42: T 0.002 | R 0.063 | K -0.045 | V 0.151 | S -0.023 | E -0.102 | P -0.169
C4: M -0.146 | K 0.125 | R 0.012 | N 0.214 | D -0.007 | W -0.242 | Q 0.142 | V -0.029
Q7: W -0.214 | R -0.019 | G -0.137 | H -0.076 | A -0.09 | V -0.288 | M -0.152 | C -0.034 | Y -0.222
D25: V -0.51 | H 0.126 | G -0.076 | M -0.35 | F -0.174 | S -0.279
L12: Q -0.294 | D -0.174 | S -0.501 | P -0.14 | K -0.312 | A -0.246
Y40: K -0.057 | E 0.067 | I -0.249 | C 0.429 | G 0.057 | S 0.121 | M -0.167 | R -0.037
S38: T -0.113 | G -0.024 | E 0.062 | D -0.081 | Q -0.01 | A 0.019
K15: G 0.103 | L -0.094 | D 0.229 | C -0.012
C8: H -0.233 | A -0.505 | V -0.712 | W -1.41 | D -0.77 | Q -0.573 | E -0.307 | G -0.391
F31: N -0.392 | A -0.175 | D -0.167 | R -0.366 | V -0.373 | S -0.231 | K -0.719
G44: E -0.172 | R -0.058 | P -0.217 | Q -0.471 | C -0.157 | W -0.189 | V -0.144
V21: R -0.264 | N -0.397 | A -0.065 | E 0.128 | W -0.02 | K 0.395 | G -0.129 | L -0.162
C32: I -0.71 | Q -0.518 | L -0.451 | A -0.354 | Y -0.634 | W -0.559
E10: Q -0.403 | A -0.477 | W -0.4 | M -0.656 | K -0.068 | P -0.356 | D -0.197 | H -0.224 | S -0.358 | T -0.751
I24: A 0.005 | K -0.079 | G -0.066 | N -0.176 | W -0.05 | F 0.052 | T 0.254 | Q -0.177
E6: F -0.229 | T -0.222 | H -0.256 | D 0.071 | N -0.241 | R -0.369 | P -0.253
C5: S -0.524 | E -0.377 | I -1.08 | L -0.922 | M -0.979 | H -0.641
G18: E 0.302 | L -0.432 | W -0.197 | A 0.015 | M -0.214 | D 0.59
L22: G -0.132 | F -0.184 | D 0.001 | E 0.015 | S -0.164 | A -0.072 | K -0.073
E39: G 0.095 | K 0.33 | Q -0.144 | W -0.478
K41: M -0.059 | S 0.027 | L -0.122 | A -0.096 | D 0.193
I1: S -0.172 | G -0.15 | W -0.746 | N 0.097 | T -0.162 | F -0.307 | E -0.012 | A -0.051 | L -0.246 | M 0.169
P13: W -0.536 | C 0.105 | K -0.678 | Q -0.063 | E -0.171 | T -0.094 | H -0.187 | V -0.669 | N -0.565 | R -0.515 | S -0.207
G16: E 0.136 | P -0.175 | T 0.202 | M 0.007
R30: C 0.262 | G 0.026 | K 0.216 | E 0.3 | F -0.088 | T 0.132
Q28: L -0.346 | P -0.065 | H 0.117 | K -0.301 | I -0.038 | M -0.123 | D 0.189 | V -0.169
G9: V -0.563 | Q -0.067 | T -0.018 | W -0.442 | F -0.001 | D -0.671 | P -0.68 | I -0.417 | A -0.17 | R -0.436 | L -0.289 | C -0.148 | K -0.511 | E -0.495
N3: H -0.154 | K -0.231 | W -0.402 | M -0.194 | S -0.141 | I -0.237 | F -0.035 | T -0.249 | G -0.119 | P -0.345
Q34: K -0.213 | S 0.009 | V 0.036 | Y -0.615 | R -0.232 | A 0.061 | N -0.028 | H 0.004 | E 0.087
V43: P 0.144 | A 0.001 | M -0.218 | R -0.039 | T -0.026 | Q -0.055 | G 0.039
G26: S -0.065 | A -0.059 | Q -0.083 | C -0.059 | R -0.255 | L -0.307 | Y 0.285
N20: K -0.209 | C 0 | A -0.037 | G -0.119 | D -0.248 | H 0.087 | L -0.103 | W -0.191
M2: R -0.179 | A -0.162 | C -0.286 | W -0.687 | Q -0.141 | D -0.049 | L -0.104 | S 0.073 | N -0.009
C33: A -0.017 | E 0.008 | Q -0.086 | L -0.385 | N -0.164 | P -0.342 | G -0.023 | S 0.024 | D 0.051
N19: K -0.287 | H -0.157 | F -0.023 | S 0.001 | M -0.061
A17: T -0.309 | K -0.521 | C -0.11 | P -0.274 | R -0.628 | Q -0.069 | V -0.223
V37: M 0.181 | C 0.018 | T 0.049 | F -0.259 | K -0.101 | S -0.161 | D -0.227 | G -0.226
K29: Q -0.283 | V -0.078 | F -0.17 | H 0.051 | R -0.06 | Y -0.026 | E -0.231
Q27: L -0.045 | A -0.045 | F -0.173
V23: S 0.025 | T 0.15 | R -0.011 | W -0.063 | Q 0.181 | N -0.123 | A -0.121 | L -0.235 | K -0.052 | Y -0.093 | I 0.031 | F 0.23 | M 0.18
Y11: C 0.035 | R 0.219 | M -0.099 | K 0.361 | Q 0.313 | H 0.298 | E 0.296 | P 0.144 | W -0.237 | F -0.133
C36: H -0.341 | G -0.303 | Q -0.201 | F -0.665 | Y -0.445 | T -0.106 | P -0.168 | I 0.163 | E -0.376
S14: C -0.072 | Y -0.802 | R -0.456 | G -0.098 | M -0.361 | T -0.09 | L -0.107
S35: G 0.024 | W -0.114 | K 0.156 | C -0.113 | Q -0.065 | M -0.087 | Y -0.08 | R 0.085 | L -0.136 | I 0.024
